Experimental data published in US20040235726A1, “Glucagon-like peptides (glp-1) and treatment of respiratory distress” (priority 2001, published 2004).
Where no end group is shown, it is not given here.

target: human GLP-1 receptor (human, UniProt P43220 24-463); experiment: cell-based or functional assay

Binder	GLP-1 receptor activation relative to Val^8-GLP-1 (7-37) OH
HVEGTYTSDYSSYLEGQAAKEFIAWLVKGRG-OH [Val^8-Tyr^12-Tyr^16-GLP-1 (7-37) OH]	1.5 relative to Val^8-GLP-1 (7-37) OH
HVEGTFTSDVSSYLEGKAAKEFIAWLVKGRG-OH [Val^8-Lys^23-GLP-1 (7-37) OH]	0.4 relative to Val^8-GLP-1 (7-37) OH
HVEGTFTSDVSSYLEEQAAKIFIAWLVKGRG-OH [Val^8-Glu^22-Ile^27-GLP-1 (7-37) OH]	2 relative to Val^8-GLP-1 (7-37) OH
HVEGTFTSDYSSFLEGQAAKEFIAWLVKGRG-OH [Val^8-Tyr^16-Phe^19-GLP-1 (7-37) OH]	2.8 relative to Val^8-GLP-1 (7-37) OH
HVEGTFTSDWSSYLEEQAVKEFIAWLIKGRG-OH [Val^8-Trp^16-Glu^22-Val^25-Ile^33-GLP-1 (7-37) OH]	5 relative to Val^8-GLP-1 (7-37) OH
HVEGTFTSDVSSYKEGQAAKEFIAWLVKGRG-OH [Val^8-Lys^20-GLP-1 (7-37) OH]	0.7 relative to Val^8-GLP-1 (7-37) OH
HVEGTFTSDVSSYLEEQALKEFIAWLVKGRG-OH [Val^8-Glu^22-Leu^25-GLP-1 (7-37) OH]	2.8 relative to Val^8-GLP-1 (7-37) OH
HVEGTFTSDVSSYLEGQAAKEFIAWLAKGRG-OH [Val^8-Ala^33-GLP-1 (7-37) OH]	0.2 relative to Val^8-GLP-1 (7-37) OH
HVEGTFTSDVSSYLEGQAAKEFIDWLVKGRG-OH [Val^8-Asp^30-GLP-1 (7-37) OH]	0.3 relative to Val^8-GLP-1 (7-37) OH
HGEGHFTSDVSSYLEGQAAKEFIAWLVKGRG-OH [Gly^8-His^11-GLP-1 (7-37) OH]	0.6 relative to Val^8-GLP-1 (7-37) OH
HVEGTFTSDVSKYLEEQAAKEFIAWLVKGRG-OH [Val^8-Lys^18-Glu^22-GLP-1 (7-37) OH]	2.5 relative to Val^8-GLP-1 (7-37) OH
HVEGTYTSDVSSYLEGQAAKEFIAWLVKGR-NH2 [Val^8-Tyr^12-GLP-1 (7-36) NH2]	1.1 relative to Val^8-GLP-1 (7-37) OH
HVEGTFTSDVSSYLEKQAAKEFIAWLVKGR-NH2 [Val^8-Lys^22-GLP-1 (7-36) NH2]	1.2 relative to Val^8-GLP-1 (7-37) OH
HVEGTFTSDVSIYLEEQAAKEFIAWLVKGRG-OH [Val^8-Ile^18-Glu^22-GLP-1 (7-37) OH]	4 relative to Val^8-GLP-1 (7-37) OH
HVEGTFTSDVSSYLEEQAIKEFIAWLVKGRG-OH [Val^8-Glu^22-Ile^25-GLP-1 (7-37) OH]	3.1 relative to Val^8-GLP-1 (7-37) OH
HVEGTFTSDVSSYLEAQAAKEFIAWLVKGRG-OH [Val^8-Ala^22-GLP-1 (7-37) OH]	1.2 relative to Val^8-GLP-1 (7-37) OH
HVEGTFTSDVSSYLEGQAAKEFIAWLVKGHG-OH [Val^8-His^36-GLP-1 (7-37) OH]	0.5 relative to Val^8-GLP-1 (7-37) OH
HVEGTFTSDASSYLEGQAAKEFIAWLVKGRG-OH [Val^8-Ala^16-GLP-1 (7-37) OH]	0.25 relative to Val^8-GLP-1 (7-37) OH
HGEGTFTSDVSSYLEGQAAKEFIAWLVKGRG-OH [Gly^8-GLP-1 (7-37) OH]	1.7 relative to Val^8-GLP-1 (7-37) OH
HVEGTFTSDFSSYLEEQAAKEFIAWLVKGRG-OH [Val^8-Phe^16-Glu^22-GLP-1 (7-37) OH]	2.3 relative to Val^8-GLP-1 (7-37) OH
HVEGTFTSDVSSYLEKQAAKEFIAWLVKGRG-OH [Val^8-Lys^22-GLP-1 (7-37) OH]	1.3 relative to Val^8-GLP-1 (7-37) OH
HVEGTFTSDWSSYLEEQAVKEFIAWLVKGRG-OH [Val^8-Trp^16-Glu^22-Val^25-GLP-1 (7-37) OH]	4.4 relative to Val^8-GLP-1 (7-37) OH
HAEGTFTSDVSSYLEQQAAKEFIAWLVKGRG-OH [Gln^22-GLP-1 (7-37) OH]	0.9 relative to Val^8-GLP-1 (7-37) OH
HVEGTFTSDVSSYLEGQAAKEFIAWLVKHRG-OH [Val^8-His^35-GLP-1 (7-37) OH]	0.9 relative to Val^8-GLP-1 (7-37) OH
HVEGTFTSDYSSWLEEQAAKEFIAWLVKGRG-OH [Val^8-Tyr^16-Trp^19-Glu^22-GLP-1 (7-37) OH]	3.5 relative to Val^8-GLP-1 (7-37) OH
HVEGTFTSDLSSYLEEQAAKEFIAWLVKGRG-OH [Val^8-Leu^16-Glu^22-GLP-1 (7-37) OH]	4.3 relative to Val^8-GLP-1 (7-37) OH
HVEGTFTSDVSSYLEDQAAKEFIAWLVKGRG-OH [Val^8-Asp^22-GLP-1 (7-37) OH]	0.9 relative to Val^8-GLP-1 (7-37) OH

Binder	GLP-1 receptor activation relative to Val^8-GLP-1 (7-37) OH
HVEGTFTSDVSSYLEEQAAKEFIAWLVKGRG-OH [Val^8-Glu^22-GLP-1 (7-37) OH]	2.9 relative to Val^8-GLP-1 (7-37) OH
HVEGTFTSDVSFYLEEQAAKEFIAWLVKGRG-OH [Val^8-Phe^18-Glu^22-GLP-1 (7-37) OH]	2 relative to Val^8-GLP-1 (7-37) OH
HVEGTFTSDVSSYLEGQAAKHFIAWLVKGRG-OH [Val^8-His^27-GLP-1 (7-37) OH]	0.8 relative to Val^8-GLP-1 (7-37) OH
HVEGTFTSDVSSYFEEQAAKEFIAWLVKGRG-OH [Val^8-Phe^20-Glu^22-GLP-1 (7-37) OH]	2.7 relative to Val^8-GLP-1 (7-37) OH
HVEGTFTSDVSSYLEHQAAKEFIAWLVKGRG-OH [Val^8-His^22-GLP-1 (7-37) OH]	0.3 relative to Val^8-GLP-1 (7-37) OH
HVEGTFTSDVSSYLEGQAAKEFISWLVKGRG-OH [Val^8-Ser^30-GLP-1 (7-37) OH]	0.4 relative to Val^8-GLP-1 (7-37) OH
HVEGTFTSDVSSWLEEQAAKEFIAWLVKGRG-OH [Val^8-Trp^19-Glu^22-GLP-1 (7-37) OH]	3.2 relative to Val^8-GLP-1 (7-37) OH
HVEGTFTSDESSYLEGQAAKEFIAWLVKGRG-OH [Val^8-Glu^16-GLP-1 (7-37) OH]	0.1 relative to Val^8-GLP-1 (7-37) OH
HVEGTFTSDVSSYLEGQAAKEFIAWLVKGEG-OH [Val^8-Glu^36-GLP-1 (7-37) OH]	0.2 relative to Val^8-GLP-1 (7-37) OH
HVDGIFTSDYSSYLEEQAAKEFIAWLVKGRG-OH [Val^8-Asp^9-Ile^11-Tyr^16-Glu^22-GLP-1 (7-37) OH]	4.3 relative to Val^8-GLP-1 (7-37) OH
HVEGTFTSDVSSYLEGQAAEEFIAWLVKGRG-OH [Val^8-Glu^26-GLP-1 (7-37) OH]	3.3 relative to Val^8-GLP-1 (7-37) OH
HVEGTFTSDVSSYLEGQAAKEFIAWLVKPRG-OH [Val^8-Pro^35-GLP-1 (7-37) OH]	0.2 relative to Val^8-GLP-1 (7-37) OH
HGEGTFTSDVSSYLEGQAAKEFIEWLVKGRG-OH [Gly^8-Glu^30-GLP-1 (7-37) OH]	0.6 relative to Val^8-GLP-1 (7-37) OH
HVEGTFTSDISSYLEEQAAKEFIAWLVKGRG-OH [Val^8-Ile^16-Glu^22-GLP-1 (7-37) OH]	3.3 relative to Val^8-GLP-1 (7-37) OH
HVEGTFTSDVSSYLEEQAAKEFIAWLVKGRH-OH [Val^8-Glu^22-His^37-GLP-1 (7-37) OH]	4.7 relative to Val^8-GLP-1 (7-37) OH
HVEGTFTSDLSSYLEGQAAKEFIAWLVKGRG-OH [Val^8-Leu^16-GLP-1 (7-37) OH]	1.1 relative to Val^8-GLP-1 (7-37) OH
HVEGTWTSDVSSYLEEQAAKEFIAWLVKGRG-OH [Val^8-Trp^12-Glu^22-GLP-1 (7-37) OH]	1.7 relative to Val^8-GLP-1 (7-37) OH
HVEGTFTSDVSSFLEEQAAKEFIAWLVKGRG-OH [Val^8-Phe^19-Glu^22-GLP-1 (7-37) OH]	1.5 relative to Val^8-GLP-1 (7-37) OH
HVEGTWTSDVSSYLEGQAAKEFIAWLVKGRG-OH [Val^8-Trp^12-GLP-1 (7-37) OH]	1.1 relative to Val^8-GLP-1 (7-37) OH
HVEGTFTSDVSSYLEGQALKEFIAWLVKGRG-OH [Val^8-Leu^25-GLP-1 (7-37) OH]	0.5 relative to Val^8-GLP-1 (7-37) OH
HVEGTFTSDVSSYLEGQAAKEFIHWLVKGRG-OH [Val^8-His^30-GLP-1 (7-37) OH]	0.4 relative to Val^8-GLP-1 (7-37) OH
HVEGTFTSDVSSYLEGQAAKEFIAWLVEGRG-OH [Val^8-Glu^34-GLP-1 (7-37) OH]	0.4 relative to Val^8-GLP-1 (7-37) OH
HVEGTFTSDVSSYLEGQAAHEFIAWLVKGRG-OH [Val^8-His^26-GLP-1 (7-37) OH]	3.5 relative to Val^8-GLP-1 (7-37) OH
HVEGTYTSDVSSYLEEQAAKEFIAWLVKGRG-OH [Val^8-Tyr^12-Glu^22-GLP-1 (7-37) OH]	2.7 relative to Val^8-GLP-1 (7-37) OH
HVEGTFTSDWSSYLEEQAAKEFIAWLIKGRG-OH [Val^8-Trp^16-Glu^22-Ile^33-GLP-1 (7-37) OH]	4.1 relative to Val^8-GLP-1 (7-37) OH
HVEGTFTSDVSSYLEGQAAKEFIAWLVKERG-OH [Val^8-Glu^35-GLP-1 (7-37) OH]	0.3 relative to Val^8-GLP-1 (7-37) OH
HVEGTFTSDVSSYLESQAAKEFIAWLVKGRG-OH [Val^8-Ser^22-GLP-1 (7-37) OH]	1.1 relative to Val^8-GLP-1 (7-37) OH
